Measured values: PMC12375108, “A repurposed AMP binding domain reveals mitochondrial protein AMPylation as a regulator of cellular metabolism” (Nature Communications, 2025)
Numbering of substitutions follows the chain as printed. Names and notes keep the numbering of the source.

T1: AMPylated sucA (UniProt P0AFG3 1-933, multiple AMPylation sites, residues not given)
T1 construct: sucA, model AMPylated substrate of E. coli SelO; also called sucA-AMP; SucA-AMP; source: E. coli BL21, co-expressed with SelO V242A (pETDuet), purified (Ni-NTA)
T1 sequence (looked up): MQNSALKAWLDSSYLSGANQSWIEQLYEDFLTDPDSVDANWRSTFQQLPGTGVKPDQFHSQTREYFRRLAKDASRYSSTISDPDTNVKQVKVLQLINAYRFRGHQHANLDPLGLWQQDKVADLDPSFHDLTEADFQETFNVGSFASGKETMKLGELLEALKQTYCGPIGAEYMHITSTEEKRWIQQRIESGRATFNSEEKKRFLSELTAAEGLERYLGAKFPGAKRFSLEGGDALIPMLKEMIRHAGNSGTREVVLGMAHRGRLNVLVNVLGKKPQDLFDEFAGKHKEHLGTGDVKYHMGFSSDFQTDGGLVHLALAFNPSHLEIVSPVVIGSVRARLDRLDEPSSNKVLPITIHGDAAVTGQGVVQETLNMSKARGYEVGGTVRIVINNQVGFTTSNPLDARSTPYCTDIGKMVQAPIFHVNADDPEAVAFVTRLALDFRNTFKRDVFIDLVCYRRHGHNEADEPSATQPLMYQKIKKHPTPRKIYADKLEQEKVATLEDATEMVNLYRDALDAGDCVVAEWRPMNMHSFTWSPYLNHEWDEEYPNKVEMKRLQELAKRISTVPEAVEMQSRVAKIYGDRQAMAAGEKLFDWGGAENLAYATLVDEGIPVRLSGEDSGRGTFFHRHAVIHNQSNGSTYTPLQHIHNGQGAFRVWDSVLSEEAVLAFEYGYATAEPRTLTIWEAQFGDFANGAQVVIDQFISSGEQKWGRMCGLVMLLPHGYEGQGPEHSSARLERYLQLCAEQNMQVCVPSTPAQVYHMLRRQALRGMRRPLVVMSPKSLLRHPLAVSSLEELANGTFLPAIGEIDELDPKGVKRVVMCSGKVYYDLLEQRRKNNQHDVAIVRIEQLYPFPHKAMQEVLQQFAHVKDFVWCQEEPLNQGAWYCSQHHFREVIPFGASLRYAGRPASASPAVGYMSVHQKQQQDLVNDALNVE

T2: AMPylated GlnA (glutamine synthetase), recombinant (E. coli, UniProt P0A9C5 1-469, AMPylated tyrosine at 398 (Tyr398-AMP))
T2 construct: glutamine synthetase GlnA, cloned in ppSumo; Species is stated for GlnA in general (E. coli), not for the ppSumo construct; also called GlnA-AMP; copies: 12
T2 sequence: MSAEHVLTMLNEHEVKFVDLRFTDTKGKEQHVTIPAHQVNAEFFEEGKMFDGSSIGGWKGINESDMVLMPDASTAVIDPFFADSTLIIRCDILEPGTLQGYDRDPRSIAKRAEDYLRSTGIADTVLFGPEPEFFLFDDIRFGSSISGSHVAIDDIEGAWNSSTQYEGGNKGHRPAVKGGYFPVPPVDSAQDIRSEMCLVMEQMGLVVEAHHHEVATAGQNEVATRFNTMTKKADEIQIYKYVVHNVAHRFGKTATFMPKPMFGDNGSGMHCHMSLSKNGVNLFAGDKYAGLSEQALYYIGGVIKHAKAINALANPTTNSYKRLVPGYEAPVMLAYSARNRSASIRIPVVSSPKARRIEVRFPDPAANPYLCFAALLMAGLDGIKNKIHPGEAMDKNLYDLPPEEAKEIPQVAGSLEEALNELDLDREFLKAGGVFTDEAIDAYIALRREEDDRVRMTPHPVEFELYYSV

B1: GST-tagged E. coli hinT H101N E96S (enzyme, UniProt P0ACE7 1-119, looked up)
chain: MAEETIFSKIIRREIPSDIVYQDDLVTAFRDISPQAPTHILIIPNILIPTVNDVSAEHEQALGRMITVAAKIAEQEGIAEDGYRLIMNTNRHGGQSVYHINMHLLGGRPLGPMLAHKGL
notes: E. coli hinT in pGEX-rTEV, E96S made by site directed mutagenesis on the H101N form; also called GST-Ec hinT^(HN, E96S); GST-Ec hinT^E96S; not shown: GST, N-terminal, kept
B2: E. coli hinT H101N (untagged) (enzyme, UniProt P0ACE7 1-119, looked up)
chain: B1 chain with S96E
notes: open reading frame cloned into pProEx; ATG replaces the endogenous TTG start codon; also called hinT^HN; source: E. coli BL21, purified (Ni-NTA, TEV cleavage, Superdex 75)

Key:
AMPylated sucA = molecular target: T1, AMPylated sucA; assay: BLI; GST-hinT (90 nM) immobilised on anti-GST biosensors; sucA-AMP 500 to 7.81 nM, unmodified sucA at 500 nM; 10 mM Tris pH 8, 150 mM NaCl, 0.1% Triton X-100; KD from steady-state responses, one site; conditions: both partners purified
[1] = molecular target: T2, AMPylated GlnA (glutamine synthetase), …; assay: far-Western, overlay or dot blot; dot blot: 400 ng to 25 ng of AMPylated or non-AMPylated protein spotted on nitrocellulose, probed with GST or GST-hinT at 0.125 μg/mL in TBST for 1 h, detected with α-GST; conditions: both partners purified
[2] = molecular target: the molecule itself; assay: cryo-EM structure; GlnA (4.68 mg/ml) mixed with hinT (3.29 mg/ml), 1:3 molar ratio of monomers; 10 mM Tris pH 8, 150 mM NaCl, 2 mM DTT

Binder	Kd (AMPylated sucA)	binding result [1]	stoichiometry N [2]
B1	21 nM	binds	
B2			2
